The values that follow come from patent US11739132B2, “Separation moieties and methods of use thereof” (Werewolf Therapeutics, Inc., priority 2019, dated 2023).

The target of one experiment is T1, Thrombin (Homo sapiens, UniProt P00734).
T1 construct: purchased R&D Systems (Bio-techne) 2196-SE-200
In words: 30-mer library counter-screening MSP-MS, Thrombin. It counts as biochemical. The procedure:
(§1) Protease specificity screening was performed using Multiplexed Substrate Profiling by Mass Spectrometry (MSP-MS), the method described in, e.g. O'Donoghue A. J. et al., Nat Methods., 2012; 9(11): 1095-1100. This method employs a physico-chemically diverse peptide library as substrates for proteases, and reactions are monitored over time with mass spectrometric detection of cleaved products. The resulting cleavages are assessed for specific cleavage in the enzyme-treated sample by comparison with results from a no-enzyme control incubation.
(§2) Enzymes were activated and assayed following the manufacturer's recommendations.
Thrombin was activated following the manufacturer's recommended conditions by pre-incubation with the enzyme with thermolysin for 15 min, and then the thermolysin was quenched with 1,10 phenanthroline treatment. Activated thrombin was assayed at 1.2 nM in activation buffer: 50 mM TRIS HCl, 10 mM CaCl2, 150 mM NaCl, 0.05% (w/v) Brij-35, pH 7.5.
(§3) Counter-screening was performed against the enzymes Thrombin, Factor Xa and Hepsin using this library as well, and for calibration of activity, a positive-control peptide bearing favorable motifs for these enzymes was also designed (ALU30-19).
(§4) Catalytic efficiency (kcat/KM) estimations were used to rank the top cleaved substrates in the MSP-MS reaction. Peptides were quantified by mass spectrometric label-free quantitation from the MS1 precursor ion peak areas for each peptide. Enzyme progress curves were modeled from six-time point measurements in GraphPad Prism. Data were fitted using non-linear least squares fitting to the first order kinetics equation:
(§5) [formula] where Y=percent product formation or substrate consumption, and t=time. The observed rate is a function of the enzyme concentration [E0], and an observed catalytic efficiency (kcat/KM) in units M^−1s^−1
(§6) Counter-screening with Thrombin, Factor Xa and Hepsin was also performed following the same analysis. The library peptide Alu30-19 was designed to include authentic sites for each enzyme, for comparison of overall cleavage efficiency as well as cleavage site specificity within each motif. The substrate designed for Factor Xa has the motif FNPR|TFGS (SEQ ID NO: 248), derived from the Factor Xa cleavage site in Thrombin. The substrate motif for Thrombin was FPR|, a common tool substrate motif. The substrate motif for hepsin was RKRR|GSRG (SEQ ID NO: 249) from filaggrin.
For orientation: The purpose of a counterscreen is to sort out artefacts and off-target activity.

The next experiment deals with T2, Hepsin (Homo sapiens, UniProt P05981).
T2 construct: purchased R&D Systems (Bio-techne) 4776-SE
The experiment can be described thus: 30-mer library counter-screening MSP-MS, Hepsin. It counts as biochemical. The following applies: for Apparent catalytic efficiency, hepsin: order of magnitude. The procedure:
as §1, §2
Hepsin was pre-activated overnight at 37° C. in the manufacturer recommended buffer: 100 mM TRIS, 10 mM CaCl2, 150 mM NaCl, 0.05% Brij-35, pH 8.0. Activity was measured with 2.4 or 24 nM enzyme in the buffer: 50 mM TRIS HCl at pH 7.4.
as §3, §4, §5, §6

Another experiment concerns the target T3, FAPα (Homo sapiens, UniProt Q12884).
T3 construct: purchased R&D Systems (Bio-techne) 930-ADB-010
T3 sequence (Q12884 1-760): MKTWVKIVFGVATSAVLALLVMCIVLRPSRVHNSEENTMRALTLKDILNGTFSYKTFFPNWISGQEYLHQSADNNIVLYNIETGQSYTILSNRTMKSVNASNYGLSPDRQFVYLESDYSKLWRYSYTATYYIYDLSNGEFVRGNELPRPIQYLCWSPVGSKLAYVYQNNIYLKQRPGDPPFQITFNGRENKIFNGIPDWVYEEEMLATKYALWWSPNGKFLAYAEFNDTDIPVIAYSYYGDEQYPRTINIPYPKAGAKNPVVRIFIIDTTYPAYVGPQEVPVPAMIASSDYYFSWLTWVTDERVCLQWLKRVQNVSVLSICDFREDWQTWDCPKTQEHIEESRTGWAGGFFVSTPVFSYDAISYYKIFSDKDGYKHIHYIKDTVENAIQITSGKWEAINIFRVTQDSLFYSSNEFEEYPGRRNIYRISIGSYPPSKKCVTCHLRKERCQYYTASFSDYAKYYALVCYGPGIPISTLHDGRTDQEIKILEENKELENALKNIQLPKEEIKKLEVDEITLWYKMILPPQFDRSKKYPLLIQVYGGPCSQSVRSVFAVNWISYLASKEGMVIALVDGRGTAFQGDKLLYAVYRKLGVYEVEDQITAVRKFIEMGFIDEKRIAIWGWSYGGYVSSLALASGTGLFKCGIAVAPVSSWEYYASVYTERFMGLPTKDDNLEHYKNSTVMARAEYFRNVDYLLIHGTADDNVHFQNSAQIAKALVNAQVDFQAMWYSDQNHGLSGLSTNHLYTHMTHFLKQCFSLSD
In words: 30-mer tandem linker library MSP-MS, FAPα. The experiment is classed as biochemical. The procedure:
as §1, §2
FAPα activity was tested with fluorescence detection using a generic Z-GP-AMC substrate. For FRET assays, the final enzyme concentration was 5 nM and the buffer was 50 mM TRIS HCl, 1 M NaCl, 1 mg/mL BSA, pH 7.5.
To analyze the catalytic efficiency of candidate tandem linker designs, a tailored library approach using MSP-MS was applied. For the tailored library, a set of nineteen synthetic peptides, 30 amino acids in length (30-mers), were designed to test whether sequence context affects the efficiency of cleavage. Peptides were assayed in a multiplex format together as a substrate library with individual recombinant enzymes, using MSP-MS. For quantitative comparisons, kinetic analysis was performed over a time course, and results are reported either as a catalytic efficiency kcat/KM for well-behaved first-order kinetics, or as observed rates as kobs for more complex kinetic behavior.
as §4, §5

The test system of experiment [1] is conditioned media from tumor, myofibroblast and YAMC cell lines. The experiment can be described thus: FRET steady-state kinetics of conditioned media (enzyme equivalents). It counts as biochemical, mouse. The following applies: for Secreted activity in conditioned media, steady-state kinetics: tumor cell lines. The text has this:
(§7) Conditioned media and cell lysate samples were received from Charles River Laboratories for the murine colon cancer cell lines: MC38 (epithelial), CT26 (fibroblast), and CT26 transduced with a lentivirus for doxycyclin-inducible expression of MMP9 (CT26 pLVX MMP9-5T4+dox). An immortalized mouse intestinal myofibroblast cell line (ABM Good #T0565) was used as a control stromal cell line, grown under manufacturer recommended conditions. Conditioned media and cell lysate samples were also received for screening purposes from ABM Good for the immortalized mouse colonic epithelial cell line YAMC (ABM Good #T0567).
(§8) In the end-point screening assays, a fixed titer of 10× concentrated sample and a substrate concentration of 10 μM was used. Values reported in the end-point experiments are initial velocity measurements, in relative fluorescence units (RFU) per second. End-point measurements are a starting point for a screen, but the rate of the reaction is non-linearly related to substrate concentration. Therefore, a more accurate representation of activity would be given by steady-state kinetic measurements covering a range of substrate concentrations. To compare activity across cell lines, the data were treated with a Michaelis-Menten model, and the concentration of equivalent enzyme units [E0] was solved.
Accordingly, initial velocity was measured as a function of substrate concentration, using a 2-fold dilution series from 250 to 1 μM. Data were fitted using non-linear least squares fitting with GraphPad Prism software v 8.0 to the Michaelis-Menten equation:
[formula] where kcat is the rate of product formation under steady-state conditions in units (s^−1), and KM is the Michaelis constant that gives the substrate concentration in molar units (M) at which half maximum velocity of the reaction is produced for a given enzyme, [E0] is the enzyme concentration, and [S] the substrate concentration in (M).
In the assays where purified recombinant enzyme is used, the Michaelis-Menten parameters are as classically defined above. For conditioned media samples, the effective titer of conditioned media per assay was adjusted to approximately a 2× concentrate of the original unprocessed media samples to assure that the detection range matched the signal produced. The enzyme component in the calculation is redefined as a mixture of possible proteases that contribute to the cumulative observed activity, each with intrinsic reactivity toward a substrate. In this case, it is more appropriate to consider kcat and KM as macroscopic constants that represent the overall efficiency of catalysis, and E0 is an enzyme equivalent, expressed in units of concentration. To solve the data fit, kcat/KM can be fixed at that of the recombinant enzyme and enzyme equivalents per cell culture volume can be output. The effective titer of enzyme equivalents in this case can be used to compare the activity produced by the different cell lines.
An immortalized mouse colonic epithelial cell line (YAMC) was used to test activity in the presence of additional control “normal” epithelial cells. YAMC's are given the calculated enzyme equivalents (nM) resulting from all of these steady state experiments, to allow for comparison of the amount of equivalent activity per sample. For example, the YAMC control epithelial cell line produced activity with the ADAM17_2 substrate equivalent to that of 0.52±0.03 nM of ADAM17 recombinant enzyme. This cell line compares directly to MC38, also of epithelial origin, which had activity equivalent to that of 0.32±0.03 nM of ADAM17 recombinant enzyme. […] This cell line required non-standard cell culture conditions, including growth with murine IFNγ, and at low temperature to maintain, and may not be fully representative of epithelial cell lines.

For experiment [2], the system named is conditioned media from MC38, CT26, CT26 pLVX MMP9-5T4+dox and myofibroblast cell lines. The experiment can be described thus: FRET end-point screen of conditioned media. It counts as biochemical, mouse. The following applies: for Ratio of tumor vs control activity, end-point screen: three tumor cell lines vs myofibroblast cell line, complete (+FBS) media, 10 μM substrate.
Text: Proteolytic activity was screened in the conditioned media samples by fluorescent resonance energy transfer (FRET) assays with the substrates listed in Table 10.
as §7
Conditioned media samples were prepared according to the standard protocol using logarithmic phase cells. Briefly, cells were grown for 16h in either serum-free media or in complete media containing 10% fetal bovine serum (FBS). After conditioned media collection, the adherent cells were washed then lysed on plate with non-denaturing lysis buffer to produce a lysed “cell pellet” to capture any activity that remained associated with the cells. All cell culture-derived conditioned media samples, cell lysates from Charles River Laboratories, and cell lysates derived internally were processed with identical methods, to allow comparison between samples.
The resulting conditioned media was buffer exchanged with PBS and concentrated to 10× the original titer as a stock solution.
FBS background controls were therefore used for baseline subtraction at each concentration of substrate throughout the FRET experiments.
as §8

No end group written: not given here.

T2 sequence (P05981 163-417 limits assumed): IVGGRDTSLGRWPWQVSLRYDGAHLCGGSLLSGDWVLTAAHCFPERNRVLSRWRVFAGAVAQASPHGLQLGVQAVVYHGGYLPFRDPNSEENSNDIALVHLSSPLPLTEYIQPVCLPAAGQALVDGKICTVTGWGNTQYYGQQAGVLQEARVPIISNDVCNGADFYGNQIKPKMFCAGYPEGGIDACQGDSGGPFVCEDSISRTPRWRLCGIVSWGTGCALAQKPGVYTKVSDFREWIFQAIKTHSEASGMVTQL
T2 sequence (P05981 1-162 partner limits assumed): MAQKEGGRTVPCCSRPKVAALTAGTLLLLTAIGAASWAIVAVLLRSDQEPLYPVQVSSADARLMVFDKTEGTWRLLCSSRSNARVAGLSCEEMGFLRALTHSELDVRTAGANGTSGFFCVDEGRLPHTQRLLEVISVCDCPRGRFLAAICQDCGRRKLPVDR

For “GGALFKSSFPGPAGLYAQPLAQKLKSSGGK [Alu30-13]”, in the experiment with Thrombin, the “Relative efficiency of 30-mer peptide cleavage by thrombin” value (from here on “Relative efficiency … by thrombin”) is given as “cleaved at lower efficiency”.
For “GGPLAQKLKSSALFKSSFPGPAGLYAQGGR [Alu30-12]”, the “Relative efficiency … by thrombin” value with Thrombin was “cleaved at lower efficiency”. The “Apparent catalytic efficiency, hepsin” value with Hepsin is given as ~10^5 M^−1s^−1.
Regarding “GALFKSSFPSGGGPAGLYAQGGSGKGGSGK [Alu30-1]”, the “Relative efficiency … by thrombin” value with Thrombin is recorded as “most rapidly cleaved in the library”.
In the case of “KGGGPAGLYAQGPAGLYAQGPAGLYAQGSR [Alu30-3]”, the “Relative efficiency … by thrombin” value with Thrombin is “most rapidly cleaved in the library”. In addition, the “Relative efficiency of 30-mer peptide degradation by FAPα” value (from here on “Relative efficiency … by FAPα”) in the experiment with FAPα is listed as “highest cleavage activity”.
As for “LAQKLKSS (also: Mca fluorophore and Dnp quencher, places not given here) [ADAM17_2, FRET substrate with Mca fluorophore and Dnp quencher]”, the “Calculated enzyme equivalents (ADAM17 recombinant enzyme)” value was 0.32 ± 0.03 nM in experiment [1] (MC38) and 0.52 ± 0.03 nM in experiment [1] (YAMC control epithelial cell line). The “Secreted activity in myofibroblast conditioned media, steady-state kinetics” value in experiment [1] is “essentially undetectable”. Further, the “Ratio of tumor vs control activity, end-point screen” value (“Ratio of tumor vs control activity” for short) in experiment [2] is recorded as “approximately 3 fold”.
In the case of “KSGPGGPAGIGALFFSSPPLAQKLKSSGGR [Alu30-18]”, the “Relative efficiency … by thrombin” value in the experiment with Thrombin is given as “lower cleavage activity”.
As to “GGGALFKSSFPLAQKLKSSPGGPAGIGGGR [Alu30-8]”, the “Apparent catalytic efficiency, hepsin” value in the experiment with Hepsin is ~10^5 M^−1s^−1. Further, the “Relative efficiency … by FAPα” value in the experiment with FAPα is reported as “not cleaved”.
Turning to “GPAGMKGL (also: Mca fluorophore and Dnp quencher, places not given here) [MMP9_1, FRET substrate with Mca fluorophore and Dnp quencher]”, the “Secreted activity in conditioned media, steady-state kinetics” value in experiment [1] is reported as “Secreted activity was measured”. In addition, the “Substrate cleavage activity in the end-point screen” value in experiment [2] (conditioned media) is recorded as “high activity”. Moreover, the “Ratio of tumor vs control activity” value in experiment [2] was “approximately 4 fold”.
For “LAQRLRSS (also: Mca fluorophore and Dnp quencher, places not given here) [ADAM17_1, FRET substrate with Mca fluorophore and Dnp quencher]”, the “Relative efficiency of cleavage by hepsin” value in the experiment with Hepsin is reported as “less efficiently cleaved than ADAM17_ 2”.
On to “RGPGGPAGIGPLAQKLKSSALFKSSFPGGG [Alu30-9]”, for which, in the experiment with Hepsin, the “Apparent catalytic efficiency, hepsin” value is ~10^5 M^−1s^−1.
“RGGPAGLYAQGGPAGLYAQGGGPAGLYAQK [Alu30-4]”: the “Relative efficiency … by thrombin” value in the experiment with Thrombin is “efficient substrate”. The “Relative efficiency … by FAPα” value with FAPα is on record as “highest cleavage activity”.
Turning to “RGPLAQKLKSSALFKSSFPGGPAGIGGGGK [Alu30-7]”, the “Relative efficiency … by FAPα” value in the experiment with FAPα is “not cleaved”.
As for “RGGALFKSSFPLAQKLKSSGPAGLYAQGGK [Alu30-14]”, the “Apparent catalytic efficiency, hepsin” value with Hepsin is ~10^5 M^−1s^−1.
For the sequence “GPAGLYAQ (also: Mca fluorophore and Dnp quencher, places not given here) [MMP14_1, FRET substrate with Mca fluorophore and Dnp quencher]”, in experiment [1], the “Secreted activity in myofibroblast conditioned media, steady-state kinetics” value is reported as “not in the myofibroblast cell line” and the “Secreted activity in conditioned media, steady-state kinetics” value is “significant measurable activity”. Moreover, the “Substrate cleavage activity in the end-point screen” value in experiment [2] (conditioned media) is listed as “high activity”. In addition, the “Substrate cleavage activity, control myofibroblast cell line” value in experiment [2] (end-point screen, conditioned media) is on record as “lowest activity”. For the same sequence, the “Ratio of tumor vs control activity” value in experiment [2] is “approximately 57 fold”. Further, in the experiment with FAPα (at PGGP|AGIG and GP|AGLYAQ respectively), the “Cleavage of motif by FAPα” value was “able to cleave”.
